Earlier results as cited in patent US20260345619A1 (Principia Biopharma Inc., priority 2023, published 2026).

Settings: for efficacy: severe asthma, eosinophilic phenotype

Row | Molecule | efficacy | patients with no decrease in oral corticosteroid (OCS) dose or lack of asthma control (high eosinophilic group (Bel E H et al., 2014)) [%]
1 | reslizumab: anti-interleukin (IL)-5 agent (antibody, chains of the INN, looked up, V domains shown) VH: EVQLVESGGGLVQPGGSLRLSCAVSGLSLTSNSVNWIRQAPGKGLEWVGLIWSNGDTDYNSAIKSRFTISRDTSKSTVYLQMNSLRAEDTAVYYCAREYYGYFDYWGQGTLVTVSS VL: DIQMTQSPSSLSASVGDRVTITCLASEGISSYLAWYQQKPGKAPKLLIYGANSLQTGVPSRFSGSGSATDYTLTISSLQPEDFATYYCQQSYKFPNTFGQGTKVEVK | have shown efficacy | 
2 | mepolizumab: anti-interleukin (IL)-5 agent (antibody, chains of the INN, looked up, V domains shown) VH: QVTLRESGPALVKPTQTLTLTCTVSGFSLTSYSVHWVRQPPGKGLEWLGVIWASGGTDYNSALMSRLSISKDTSRNQVVLTMTNMDPVDTATYYCARDPPSSLLRLDYWGRGTPVTVSS VL: DIVMTQSPDSLAVSLGERATINCKSSQSLLNSGNQKNYLAWYQQKPGQPPKLLIYGASTRESGVPDRFSGSGSGTDFTLTISSLQAEDVAVYYCQNVHSFPFTFGGGTKLEIK | have shown efficacy | 36
